Measurements from patent publication US20150010932A1 (SALK INSTITUTE FOR BIOLOGICAL STUDIES, published 2015).

B5: nLuc-linker-HA-Mdm4_RING (other)
chain: MEDAKNIKKGPAPFYPLEDGTAGEQLHKAMKRYALVPGTIAFTDAHIEVDITYAEYFEMSVRLAEAMKRYGLNTNHRIVVCSENSLQFFMPVLGALFIGVAVAPANDIYNERELLNSMGISQPTVVFVSKKGLQKILNVQKKLPIIQKIIIMDSKTDYQGFQSMYTFVTSHLPPGFNEYDFVPESFDRDKTIALIMNSSGSTGLPKGVALPHRTACVRFSHARDPIFGNQIIPDTAILSVVPFHHGFGMFTTLGYLICGFRVVLMYRFEEELFLRSLQDYKIQSALLVPTLFSFFAKSTLIDKYDLSNLHEIASGGAPLSKEVGEAVAKRFHLPGIRQGYGLTETTSAILITPEGDDKPGAVGKVVPFFEAKVVDLDTGKTLGVNQRGELCVRGPMIMSGYVNNPEATNALIDKDGGGGSGGGQISYASRGYPYDVPDYAGSMEDCQNLLKPCSLCEKRPRDGNIIHGRTGHLVTCFHCARRLKKAGASCPICKKEIQLVIKVFIA
notes: range 427-490; Expressed from pLi283 and pLi285; also called nLuc-Mdm4_RING; Mdm4 RING domain
B6: cLuc-linker-HA-Mdm2_RING (other)
chain: MSGYVNNPEATNALIDKDGWLHSGDIAYWDEDEHFFIVDRLKSLIKYKGYQVAPAELESILLQHPNIFDAGVAGLPDDDAGELPAAVVVLEHGKTMTEKEIVDYVASQVTTAKKLRGGVVFVDEVPKGLTGKLDARKIREILIKAKKGGKIAVGGGSGGGQISYASRGYPYDVPDYAGSSSLPLNAIEPCVICQGRPKNGCIVHGKTGHLMACFTCAKKLKKRNKPCPVCRQPIQMIVLTYFP
notes: range 428-491; Expressed from pLi283; also called cLuc-Mdm2_RING; Mdm2 RING domain

Assays:
nLuc-linker-HA-Ube2t [1] = target: T1, nLuc-linker-HA-Ube2t (UniProt Q9NPD8 1-197, limits assumed); assay: ReBiL BiLC in living U2OS cells at 35° C
T1 construct: Expressed from pLi505 and pLi506; also called nLuc-Ube2t; nLuc-Linker1-HA-Ube2t; not shown: linker-HA

nLuc-linker-HA-Ube2t [2] = target: T1, nLuc-linker-HA-Ube2t; assay: ReBiL BiLC in living U2OS cells at 35° C (FIG. 23C)
cLuc-linker-HA = target: T2, cLuc-linker-HA (Photinus pyralis (Common eastern …, UniProt P08659 398-547 = luciferase)); assay: quantitative ReBiL assay in U2OS cells (FIG. 17D)
T2 construct: Expressed from pLi635, no fusion partner; also called cLuc-HA; cLuc alone; not shown: linker-HA

TAT-PMI = assay: lysate BiLC (FIG. 13B); disruption of nLuc-p53 / cLuc-Mdm4
cLuc-linker-HA-Mdm2_RING = target: B6; assay: BiLC in cell lysate with PPI lysis buffer PLB; reference is the Mdm4_RING / Mdm2_RING_C464A pair
nLuc-linker-HA-Mdm4_RING [3] = target: B5; assay: BiLC in U2OS cell lysates, three lysis buffers
nLuc-linker-HA-Mdm4_RING [4] = target: B5; assay: BiLC in cells and in cell lysate (FIGS. 16 and 12)

T1 sequence (Q9NPD8 whole entry): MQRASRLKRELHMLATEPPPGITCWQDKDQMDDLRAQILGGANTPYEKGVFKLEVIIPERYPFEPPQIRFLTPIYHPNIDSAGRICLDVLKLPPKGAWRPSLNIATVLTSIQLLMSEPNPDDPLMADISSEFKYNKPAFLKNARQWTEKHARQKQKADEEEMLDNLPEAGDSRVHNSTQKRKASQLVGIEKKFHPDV

B1: cLuc-linker-FLAG-FANCL_WT (other)
chain: MSGYVNNPEATNALIDKDGWLHSGDIAYWDEDEHFFIVDRLKSLIKYKGYQVAPAELESILLQHPNIFDAGVAGLPDDDAGELPAAVVVLEHGKTMTEKEIVDYVASQVTTAKKLRGGVVFVDEVPKGLTGKLDARKIREILIKAKKGGKIAVGGGSGGGQISYASRGDYKDDDDKSGAVTEASLLRQCPLLLPQNRSKTVYEGFISAQGRDFHLRIVLPEDLQLKNARLLCSWQLRTILSGYHRIVQQRMQHSPDLMSFMMELKMLLEVALKNRQELYALPPPPQFYSSLIEEIGTLGWDKLVYADTCFSTIKLKAEDASGREHLITLKLKAKYPAESPDYFVDFPVPFCASWTPQSSLISIYSQFLAAIESLKAFWDVMDEIDEKTWVLEPEKPPRSATARRIALGNNVSINIEVDPRHPTMLPECFFLGADHVVKPLGIKLSRNIHLWDPENSVLQNLKDVLEIDFPARAILEKSDFTMDCGICYAYQLDGTIPDQVCDNSQCGQPFHQICLYEWLRGLLTSRQSFNIIFGECPYCSKPITLKMSGRKH
notes: mature; Expressed from pLi505; also called cLuc-FANCL
B1: binds (nLuc-linker-HA-Ube2t [1]).

B2: cLuc-linker-FLAG-FANCL_C307A (other)
chain: MSGYVNNPEATNALIDKDGWLHSGDIAYWDEDEHFFIVDRLKSLIKYKGYQVAPAELESILLQHPNIFDAGVAGLPDDDAGELPAAVVVLEHGKTMTEKEIVDYVASQVTTAKKLRGGVVFVDEVPKGLTGKLDARKIREILIKAKKGGKIAVGGGSGGGQISYASRGDYKDDDDKSGAVTEASLLRQCPLLLPQNRSKTVYEGFISAQGRDFHLRIVLPEDLQLKNARLLCSWQLRTILSGYHRIVQQRMQHSPDLMSFMMELKMLLEVALKNRQELYALPPPPQFYSSLIEEIGTLGWDKLVYADTCFSTIKLKAEDASGREHLITLKLKAKYPAESPDYFVDFPVPFCASWTPQSSLISIYSQFLAAIESLKAFWDVMDEIDEKTWVLEPEKPPRSATARRIALGNNVSINIEVDPRHPTMLPECFFLGADHVVKPLGIKLSRNIHLWDPENSVLQNLKDVLEIDFPARAILEKSDFTMDAGICYAYQLDGTIPDQVCDNSQCGQPFHQICLYEWLRGLLTSRQSFNIIFGECPYCSKPITLKMSGRKH
notes: mature; Expressed from pLi506
B2: no binding (nLuc-linker-HA-Ube2t [2]).

B3: nLuc-linker-HA (other)
chain: MEDAKNIKKGPAPFYPLEDGTAGEQLHKAMKRYALVPGTIAFTDAHIEVDITYAEYFEMSVRLAEAMKRYGLNTNHRIVVCSENSLQFFMPVLGALFIGVAVAPANDIYNERELLNSMGISQPTVVFVSKKGLQKILNVQKKLPIIQKIIIMDSKTDYQGFQSMYTFVTSHLPPGFNEYDFVPESFDRDKTIALIMNSSGSTGLPKGVALPHRTACVRFSHARDPIFGNQIIPDTAILSVVPFHHGFGMFTTLGYLICGFRVVLMYRFEEELFLRSLQDYKIQSALLVPTLFSFFAKSTLIDKYDLSNLHEIASGGAPLSKEVGEAVAKRFHLPGIRQGYGLTETTSAILITPEGDDKPGAVGKVVPFFEAKVVDLDTGKTLGVNQRGELCVRGPMIMSGYVNNPEATNALIDKDG
notes: Expressed from pLi635, no fusion partner; also called nLuc-HA; nLuc alone; not shown: linker-HA
B3: no binding (cLuc-linker-HA).

B4: cLuc-linker-FLAG-Mdm4-111 (other)
chain: MSGYVNNPEATNALIDKDGWLHSGDIAYWDEDEHFFIVDRLKSLIKYKGYQVAPAELESILLQHPNIFDAGVAGLPDDDAGELPAAVVVLEHGKTMTEKEIVDYVASQVTTAKKLRGGVVFVDEVPKGLTGKLDARKIREILIKAKKGGKIAVGGGSGGGQISYASRGDYKDDDDKSGTSFSTSAQCSTSDSACRISPGQINQVRPKLPLLKILHAAGAQGEMFTVKEVMHYLGQYIMVKQLYDQQEQHMVYCGGDLLGELLGRQSFSVKDPSPLYDMLRKNLVTLAT
notes: range 2-111; Expressed from pLi354 with nLuc-p53; also called cLuc-Mdm4
B4: binds (TAT-PMI).

With B5 the “BiLC signal (wild type) to noise (mutant) ratio” value (cLuc-linker-HA-Mdm2_RING) was over 1000 fold.

B6: binds (nLuc-linker-HA-Mdm4_RING [3]).

B7: cLuc-linker-HA-Mdm2_RING-C464A (other)
chain: MSGYVNNPEATNALIDKDGWLHSGDIAYWDEDEHFFIVDRLKSLIKYKGYQVAPAELESILLQHPNIFDAGVAGLPDDDAGELPAAVVVLEHGKTMTEKEIVDYVASQVTTAKKLRGGVVFVDEVPKGLTGKLDARKIREILIKAKKGGKIAVGGGSGGGQISYASRGYPYDVPDYAGSSSLPLNAIEPCVICQGRPKNGCIVHGKTGHLMACFTAAKKLKKRNKPCPVCRQPIQMIVLTYFP
notes: range 428-491; Expressed from pLi285; also called Mdm2_C464A
B7: no binding (nLuc-linker-HA-Mdm4_RING [4]).
